Measurements: patent US20250122303A1 (HUMMINGBIRD BIOSCIENCE PTE, published 2025)
Read-outs that look alike come from different tables or passages of the source.

Experiments:
[1] = target: T1, human HER3 polypeptide (human, UniProt P21860 20-643); test: BLI; after 15 days at 40 °C/80% RH
T1 construct: Recombinant antigen of the ELISAs; also called human HER3 (Sino Biological Inc.); human antigen HER3

[2] = target: T2, hCD16a (human, UniProt P08637 17-208, limits assumed); test: BLI; after 15 days at 40 °C/80% RH
T2 construct: also called human CD16a

[3] = target: T1, human HER3 polypeptide; test: BLI; day 0 of storage at 40 °C/80% RH
[4] = target: T2, hCD16a; test: BLI; day 0 of storage at 40 °C/80% RH
[5] = target: T3, human HER4 expressed on HEK293 cells (human, UniProt Q15303 26-1308); test: flow cytometry on HEK293 HER4 overexpressing cells
T3 construct: whole, on cells; also called HEK293 HER4 overexpressing cells; cell-surface expressed HER4
Procedure: Also included was a commercial anti-HER4 antibody (Novus, Cat: FAB11311P). Unstained HEK293 cells were included in the analysis as negative controls.
HEK293 cells were incubated with 10 μg/ml of each antibody for 1 hour at 4° C. Flow cytometry was performed as described above. Cells were contacted with FITC-conjugated anti-FC antibody (Invitrogen, USA) at for 30 min at 4° C.

[6] = target: T4, human EGFR (human, UniProt P00533 25-645); test: ELISA; plate coated with target polypeptide, absorbance 450 nm
T4 construct: also called human HER1 (EGFR) (Sino Biological Inc.)
Procedure: (§1) The antibodies were analysed for their ability to bind to human HER3 polypeptide as well as human HER1 (EGFR) and human HER2 (Sino Biological Inc., China).
(§2) ELISAs were carried out according to standard protocols. Plates were coated with 0.1 μg/ml of target polypeptide in phosphate-buffered saline (PBS) for 16 h at 4° C. After blocking for 1 h with 1% BSA in Tris buffer saline (TBS) at room temperature, the anti-HER3 antibody was serially diluted with the highest concentration being 10 μg/ml, and added to the plate. Post 1 h incubation at room temperature, plates were washed three times with TBS containing 0.05% Tween 20 (TBS-T) and were then incubated with a HRP-conjugated anti-His antibody (Life Technologies, Inc., USA) for 1 h at room temperature. After washing, plates were developed with colorimetric detection substrate 3,3′,5,5′-tetramethylbenzidine (Turbo-TMB; Pierce, USA) for 10 min. The reaction was stopped with 2M H₂SO₄, and OD was measured at 450 nm.

[7] = target: T5, human HER2 (human, UniProt P04626 23-652); test: as above
T5 construct: also called human HER2 (Sino Biological Inc.)
Procedure: as §1, §2

[8] = target: T6, FcgRIIA (H167) (human, UniProt P12318); test: Bio-Layer Interferometry (determined as described in Example 7)
T6 construct: recombinant; also called CD32A; hFcγRIIa167H
T6 sequence (receptor, looked up): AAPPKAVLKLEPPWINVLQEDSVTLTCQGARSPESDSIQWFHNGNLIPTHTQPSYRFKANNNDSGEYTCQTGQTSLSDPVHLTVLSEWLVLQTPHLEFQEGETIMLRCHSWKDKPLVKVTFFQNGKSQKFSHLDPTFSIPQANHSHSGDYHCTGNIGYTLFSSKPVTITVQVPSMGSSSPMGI

[9] = target: T1, human HER3 polypeptide; test: ELISA; plate coated with target polypeptide, antibody serially diluted, absorbance 450 nm
Procedure: as §1, §2

[10] = target: T1, human HER3 polypeptide; test: as above; remark: listed apart in the source
Procedure: as §2

[11] = target: T7, mouse HER3 (mouse, UniProt Q61526 20-641); test: as above
T7 construct: also called mouse homologue of HER3 (Sino Biological Inc.); M. musculus HER3
Procedure: as §2

[12] = target: T8, rat HER3 (rat, UniProt Q62799 20-641, limits assumed); test: as above
T8 construct: also called rat homologue of HER3 (Sino Biological Inc.); R. norvegicus HER3
Procedure: as §2

[13] = target: T9, cynomolgus macaque HER3 (cynomolgus macaque, UniProt G7PIG5 20-643); test: as above
T9 construct: also called monkey homologue of HER3 (Sino Biological Inc.); HER3 cyno
Procedure: as §2

[14] = target: T10, His-tagged human HER3 (human, UniProt P21860 20-643); test: BLI (Octet QK384), antibody on anti-human IgG capture tips, His-tagged human HER3 in solution, global 1:1 fit, R^2 = 0.9902, kon Error 1.12E+04; Response 0.1471 / 0.2882 / 0.3968 / 0.5458 at 35 / 69 / 139 / 278 nM
T10 construct: Antigen of the BLI experiments and of the HER2-Fc dimerisation ELISA; also called HER3 His; not shown: His tag
Procedure: The anti-HER3 antibody clones in IgG1 format were analysed for binding affinity to human HER3. Bio-Layer Interferometry (BLI) experiments were performed using the Octet QK384 system (ForteBio). anti-Human IgG Capture (AHC) Octet sensor tips (Pall ForteBio, USA) were used to anti-HER3 antibodies (25 nM). All measurements were performed at 25° C. with agitation at 1000 rpm. […] Sensograms were referenced for buffer effects and then fitted using the Octet QK384 user software (Pall ForteBio, USA). Kinetic responses were subjected to a global fitting using a one site binding model to obtain values for association (Kₒₙ), dissociation (Koff) rate constants and the equilibrium dissociation constant (KD). Only curves that could be reliably fitted with the software (R²>0.90) were included in the analysis.

T8 sequence (Q62799 20-641 limits assumed): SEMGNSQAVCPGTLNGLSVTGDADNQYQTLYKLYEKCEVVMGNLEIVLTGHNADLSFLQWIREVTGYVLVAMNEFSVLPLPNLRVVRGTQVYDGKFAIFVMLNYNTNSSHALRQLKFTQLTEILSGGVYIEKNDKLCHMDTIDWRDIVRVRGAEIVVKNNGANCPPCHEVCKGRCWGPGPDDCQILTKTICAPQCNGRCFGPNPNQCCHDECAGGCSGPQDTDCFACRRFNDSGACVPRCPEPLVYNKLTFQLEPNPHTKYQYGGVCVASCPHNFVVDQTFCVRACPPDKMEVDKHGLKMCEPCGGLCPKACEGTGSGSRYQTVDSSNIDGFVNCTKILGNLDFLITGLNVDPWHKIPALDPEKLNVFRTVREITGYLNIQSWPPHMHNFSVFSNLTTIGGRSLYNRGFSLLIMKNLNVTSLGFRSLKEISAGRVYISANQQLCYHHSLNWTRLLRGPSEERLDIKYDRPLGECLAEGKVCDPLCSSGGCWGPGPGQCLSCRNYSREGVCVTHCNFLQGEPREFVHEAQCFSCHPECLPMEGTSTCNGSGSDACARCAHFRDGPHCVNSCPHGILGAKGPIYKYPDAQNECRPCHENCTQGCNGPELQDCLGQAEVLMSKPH
T7 sequence (Q61526 20-641 limits assumed): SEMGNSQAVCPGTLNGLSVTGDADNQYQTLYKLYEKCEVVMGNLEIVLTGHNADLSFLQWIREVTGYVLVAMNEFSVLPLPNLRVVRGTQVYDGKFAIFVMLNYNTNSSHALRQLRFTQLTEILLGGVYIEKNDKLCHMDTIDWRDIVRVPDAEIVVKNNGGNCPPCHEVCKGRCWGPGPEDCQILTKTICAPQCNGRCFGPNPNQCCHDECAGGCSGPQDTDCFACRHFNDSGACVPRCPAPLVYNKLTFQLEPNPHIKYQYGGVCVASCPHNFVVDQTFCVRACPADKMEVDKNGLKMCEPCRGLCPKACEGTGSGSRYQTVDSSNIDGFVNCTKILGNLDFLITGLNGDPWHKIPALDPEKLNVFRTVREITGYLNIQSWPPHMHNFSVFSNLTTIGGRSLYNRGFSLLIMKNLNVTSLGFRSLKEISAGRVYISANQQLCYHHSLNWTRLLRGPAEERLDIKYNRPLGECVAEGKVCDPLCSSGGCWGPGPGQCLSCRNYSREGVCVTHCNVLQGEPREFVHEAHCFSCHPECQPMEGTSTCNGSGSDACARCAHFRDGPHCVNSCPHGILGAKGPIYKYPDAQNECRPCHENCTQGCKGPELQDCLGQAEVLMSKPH
T3 sequence (Q15303 26-1308): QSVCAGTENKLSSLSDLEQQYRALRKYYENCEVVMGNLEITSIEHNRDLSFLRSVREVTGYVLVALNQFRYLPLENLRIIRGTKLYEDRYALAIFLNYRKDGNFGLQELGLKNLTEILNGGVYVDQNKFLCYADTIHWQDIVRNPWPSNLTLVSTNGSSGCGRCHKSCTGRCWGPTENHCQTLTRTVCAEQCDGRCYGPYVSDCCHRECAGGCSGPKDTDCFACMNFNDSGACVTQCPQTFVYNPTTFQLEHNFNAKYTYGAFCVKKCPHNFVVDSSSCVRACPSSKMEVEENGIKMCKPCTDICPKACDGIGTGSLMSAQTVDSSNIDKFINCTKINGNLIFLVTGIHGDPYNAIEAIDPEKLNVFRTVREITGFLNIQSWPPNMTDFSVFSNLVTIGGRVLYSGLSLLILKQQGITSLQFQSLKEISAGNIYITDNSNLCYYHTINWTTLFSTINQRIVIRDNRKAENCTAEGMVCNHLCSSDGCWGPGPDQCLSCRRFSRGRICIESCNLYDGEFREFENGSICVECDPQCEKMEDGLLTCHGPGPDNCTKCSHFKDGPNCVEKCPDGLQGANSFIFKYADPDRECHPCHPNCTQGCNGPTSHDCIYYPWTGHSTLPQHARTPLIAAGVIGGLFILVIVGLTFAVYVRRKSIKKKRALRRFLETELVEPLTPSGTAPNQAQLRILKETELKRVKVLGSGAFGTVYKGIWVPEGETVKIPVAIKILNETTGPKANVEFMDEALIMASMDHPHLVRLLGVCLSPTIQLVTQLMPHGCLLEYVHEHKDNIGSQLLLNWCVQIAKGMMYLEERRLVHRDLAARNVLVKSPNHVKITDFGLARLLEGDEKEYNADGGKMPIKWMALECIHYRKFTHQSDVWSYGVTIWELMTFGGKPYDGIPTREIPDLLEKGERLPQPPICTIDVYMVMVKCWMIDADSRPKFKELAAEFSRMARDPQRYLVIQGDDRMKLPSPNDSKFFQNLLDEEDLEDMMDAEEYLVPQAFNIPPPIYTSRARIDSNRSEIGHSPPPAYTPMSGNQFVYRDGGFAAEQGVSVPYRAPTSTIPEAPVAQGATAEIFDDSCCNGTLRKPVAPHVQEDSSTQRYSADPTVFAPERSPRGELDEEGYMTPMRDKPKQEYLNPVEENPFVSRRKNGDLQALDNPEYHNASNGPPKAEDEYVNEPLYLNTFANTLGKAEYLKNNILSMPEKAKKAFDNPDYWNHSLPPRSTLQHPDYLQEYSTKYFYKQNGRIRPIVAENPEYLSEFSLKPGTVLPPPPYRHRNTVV
T9 sequence (G7PIG5 entry or part of it): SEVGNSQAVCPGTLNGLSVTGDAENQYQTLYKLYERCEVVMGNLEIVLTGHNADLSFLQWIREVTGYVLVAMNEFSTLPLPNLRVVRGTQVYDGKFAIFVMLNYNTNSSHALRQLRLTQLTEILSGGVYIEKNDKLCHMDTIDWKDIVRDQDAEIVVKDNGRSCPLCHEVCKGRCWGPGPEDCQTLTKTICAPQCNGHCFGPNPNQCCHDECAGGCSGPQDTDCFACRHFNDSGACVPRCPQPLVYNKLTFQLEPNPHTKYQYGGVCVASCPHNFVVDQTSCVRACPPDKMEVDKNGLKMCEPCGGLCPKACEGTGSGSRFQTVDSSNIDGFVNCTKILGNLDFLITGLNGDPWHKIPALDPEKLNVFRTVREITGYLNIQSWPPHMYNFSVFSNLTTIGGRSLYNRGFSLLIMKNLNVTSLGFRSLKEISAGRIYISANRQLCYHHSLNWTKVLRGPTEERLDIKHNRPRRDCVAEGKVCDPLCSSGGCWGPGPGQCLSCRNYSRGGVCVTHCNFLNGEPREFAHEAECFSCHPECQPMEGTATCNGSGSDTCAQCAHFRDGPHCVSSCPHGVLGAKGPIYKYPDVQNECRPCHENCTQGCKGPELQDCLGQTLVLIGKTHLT

- Kd [1]: < 0.001 nM
- Kd [2]: 265 nM
- Kd [3]: < 0.001 nM
- Kd [4]: 294 nM
- binding result [5]: no binding
- binding result [6]: no binding
- binding result [7]: no binding
- Kd [8]: 1800 nM
- EC50 [9]: 0.0144 nM
- EC50 [10]: 0.0144 nM
- EC50 [11]: 0.0332 nM
- EC50 [12]: 0.0303 nM
- EC50 [13]: 0.0258 nM
- kon [14]: 297000 M⁻¹ s⁻¹
B1: 10D1F.FcA (anti-HER3 clone 10D1_c89 IgG1) (antibody)
heavy: not shown
light: DIQMTQSPSSVSASVGDRVTITCKASQIVGSNVAWYQQKPGKAPEPLIYSASYLYSGVPSRFSGSGSGTDFTLTISSLQPEDFATYYCQQYSSHPLTFGQGTKLEIKRTVAAPSVFIFPPSDEQLKSGTASVVCLLNNFYPREAKVQWKVDNALQSGNSQESVTEQDSKDSTYSLSSTLTLSKADYEKHKVYACEVTHQGLSSPVTKSFNRGEC
notes: also called 10D1F.A; HMBD-001
